In US20190153112A1 (IMMUTEP S A S, published 2019):

How the values were obtained:
[1] = target: human LAG-3 protein (Lymphocyte activation gene-3) on the cell surface (human) (UniProt P18627); experiment: flow cytometry on CHO-LAG-3+ cells; antibody 6 ng/ml
[2] = target: human LAG-3 protein (Lymphocyte activation gene-3) on the cell surface (human) (UniProt P18627); experiment: flow cytometry on CHO-LAG-3+ cells; antibody 20 ng/ml
[3] = target: human LAG-3 protein (Lymphocyte activation gene-3) on the cell surface (human) (UniProt P18627); experiment: flow cytometry on CHO-LAG-3+ cells; antibody 61 ng/ml
[4] = target: human LAG-3 protein (Lymphocyte activation gene-3) on the cell surface (human) (UniProt P18627); experiment: flow cytometry on CHO-LAG-3+ cells; antibody 192 ng/ml
[5] = target: human LAG-3 protein (Lymphocyte activation gene-3) on the cell surface (human) (UniProt P18627); experiment: flow cytometry on CHO-LAG-3+ cells; antibody 605 ng/ml
[6] = target: human LAG-3 protein (Lymphocyte activation gene-3) on the cell surface (human) (UniProt P18627); experiment: flow cytometry on CHO-LAG-3+ cells; antibody 1905 ng/ml
[7] = target: human LAG-3 protein (Lymphocyte activation gene-3) on the cell surface (human) (UniProt P18627); experiment: flow cytometry on CHO-LAG-3+ cells; antibody 6000 ng/ml
[8] = target: human LAG-3 protein (Lymphocyte activation gene-3) on the cell surface (human) (UniProt P18627); experiment: flow cytometry on CHO-LAG-3+ cells; antibody 0 ng/ml (no-antibody background)
[9] = target: T1, IMP321 (recombinant soluble human LAG-3Ig fusion protein) (human, UniProt P18627 23-450); experiment: cell-based or functional assay
T1 sequence (looked up): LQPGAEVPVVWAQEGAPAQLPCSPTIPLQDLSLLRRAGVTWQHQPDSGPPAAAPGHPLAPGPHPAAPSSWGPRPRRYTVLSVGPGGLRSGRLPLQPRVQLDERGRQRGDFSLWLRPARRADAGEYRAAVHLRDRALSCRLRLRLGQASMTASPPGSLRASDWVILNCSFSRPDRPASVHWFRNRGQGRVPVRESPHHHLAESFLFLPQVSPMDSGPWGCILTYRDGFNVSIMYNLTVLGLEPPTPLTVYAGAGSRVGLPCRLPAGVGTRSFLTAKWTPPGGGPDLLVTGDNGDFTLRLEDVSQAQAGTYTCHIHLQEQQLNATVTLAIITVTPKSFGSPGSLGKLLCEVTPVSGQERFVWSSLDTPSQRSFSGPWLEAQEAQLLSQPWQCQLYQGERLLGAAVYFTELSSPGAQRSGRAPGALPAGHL

[10] = target: T2, human LAG-3 protein (Lymphocyte activation gene-3) on the cell surface (human, UniProt P18627 23-525); experiment: flow cytometry on CD4+ cells of SEB-stimulated PBMCs, mean of three donors
T2 construct: also called CD223; CHO LAG-3+
T2 sequence: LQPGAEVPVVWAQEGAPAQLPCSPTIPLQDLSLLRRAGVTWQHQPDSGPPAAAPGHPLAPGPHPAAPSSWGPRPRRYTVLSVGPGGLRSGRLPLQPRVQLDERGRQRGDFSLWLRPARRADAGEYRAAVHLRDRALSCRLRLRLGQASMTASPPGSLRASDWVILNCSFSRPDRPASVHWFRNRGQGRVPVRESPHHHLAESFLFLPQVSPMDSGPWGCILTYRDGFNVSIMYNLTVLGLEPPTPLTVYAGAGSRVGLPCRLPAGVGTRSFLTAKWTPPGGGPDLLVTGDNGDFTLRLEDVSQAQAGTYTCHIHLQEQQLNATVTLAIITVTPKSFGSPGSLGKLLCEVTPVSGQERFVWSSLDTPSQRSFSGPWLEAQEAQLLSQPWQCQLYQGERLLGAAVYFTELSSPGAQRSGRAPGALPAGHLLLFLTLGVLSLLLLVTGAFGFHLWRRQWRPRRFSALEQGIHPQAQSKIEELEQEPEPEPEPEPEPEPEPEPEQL
Description: (§1) LAG-3⁺-transfected CHO cells, or SEB-stimulated PBMCs from a healthy donor were incubated with anti-LAG-3 monoclonal antibody, or an isotype control (mIgG1) for 30 minutes in PBS, BSA 0.5%, Azide 0.1% at 4° C. […] The secondary antibody was washed away, and the CHO cells were directly analyzed by flow cytometry. The PBMCs were phenotyped using CD4-PE-Cy7 and CD8-APC-Cy7.

[11] = target: T2, human LAG-3 protein (Lymphocyte …); experiment: flow cytometry on CD8+ cells of SEB-stimulated PBMCs, mean of three donors
Description: as §1

[12] = target: T2, human LAG-3 protein (Lymphocyte …); experiment: flow cytometry on CD4+ cells of SEB-stimulated PBMCs (Donor 1), from Table 13
Description: as §1

[13] = target: T2, human LAG-3 protein (Lymphocyte …); experiment: flow cytometry on CD4+ cells of SEB-stimulated PBMCs, three donors; reference 17B4
Description: as §1

[14] = target: T2, human LAG-3 protein (Lymphocyte …); experiment: flow cytometry on CD8+ cells of SEB-stimulated PBMCs, three donors; reference 17B4
Description: as §1

[15] = target: T2, human LAG-3 protein (Lymphocyte …); experiment: flow cytometry on LAG-3-expressing CHO cells, four independent experiments; reference 17B4
Description: as §1

[16] = target: T2, human LAG-3 protein (Lymphocyte …); experiment: flow cytometry on CD8+ cells of SEB-stimulated PBMCs (Donor 1), from Table 13
Description: as §1

Molecule	MFI FITC [1]	MFI FITC [2]	MFI FITC [3]	MFI FITC [4]	MFI FITC [5]	MFI FITC [6]	MFI FITC [7]	MFI FITC [8]	percentage of inhibition of CD8+ T cell proliferation; Donor #1, 34F4 1000 ng/ml neutralised with a 10-fold excess of IMP321 [9]	percentage of inhibition of CD8+ T cell proliferation; Donor #2, 34F4 1000 ng/ml neutralised with a 10-fold excess of IMP321 [9]	EC50 [10]	EC50 [11]	EC50 [12]	ratio of mean EC50 against 17B4 [13]	ratio of mean EC50 against 17B4 [14]	ratio of mean EC50 against 17B4 [15]	EC50 [16]
human IgG4 (isotype-matched negative control) (antibody)	37 MFI	49 MFI	69 MFI	59 MFI	46 MFI	77 MFI	71 MFI	35 MFI	–	–	–	–	–	–	–	–	–
mouse monoclonal anti-LAG-3 antibody 34F4 (antibody, V domains shown, Whole mouse monoclonal antibody from a hybridoma; mIgG1 was used as its isotype control) VH: QVTLKESGPGILQPSQTLSLTCSFSGFSLNTSGMGVGWIRQPSGKGLEWLTHIWWDDVKRYNPALKSRLTISKDTSSSQVFLKIASVDTADTATYYCARIEGDTYYDYYFDYWGQGVTLTVSS VL: DIVMTQSHKLMSTSVGDGLSITCKASQDVSIAVVWYQQKPGQSPKLLIYSASFRYTGVPDRFTGSGSGTDFTFTISSVQAEDLAVYYCQQHYSIPWTFGGGTKLEIK	–	–	–	–	–	–	–	–	0%	41%	200 pM	500 pM	100 pM	3.8 times	2.5 times	1.6 times	–
mouse monoclonal anti-LAG-3 antibody 13E2 (antibody, V domains shown, Whole mouse monoclonal antibody from a hybridoma; mIgG1 was used as its isotype control) VH: QVTLKESGPGILQPSQTLSLTCSFSGFSLSTSGMGLGWIRQPSGKGLEWLTHIWWDDIKRYNPDLRSRLTISKDTSSSQIFLKIASVDTADTATYYCARIVEGSYSSSYFDVWGAGTTVTVSS VL: DIVMTQPHKFMSTSVEDRVTITCKASQDVIFDVAWYQQKPGQSPKLLIYSASSRVSGVPDRFTGSGSGTDFTFTISSVQAEDLAVYYCQQHYSTPYTFGGGTTLEIK	–	–	–	–	–	–	–	–	–	–	200 pM	400 pM	100 pM	3.8 times	2.5 times	2.7 times	300 pM
